Test results taken from patent US7098304B1, “Assay for the diagnosis of schizophrenia based on a new peptide” (Yeda Research and Development Co. Ltd., priority 1998, dated 2006).

B1: Enolase from Rabbit: commercially available rabbit protein enolase (protein)
chain: AMQKIFAREILDSRGNPTVEVDLHTAKGRFRAAVPSGASTGIYEALELRDGDKSRYLGKGVLKAVEHINKTLGPALLEKKLSVVDQEKVDKFMIELDGTENKSKFGANAILGVSLAVCKAGAAEKGVPLYRHIADLAGNHDLVLPVPAFNVINGGSHAGNKLAMQEFMILPVGASSFREAMRIGAEVYHHLKGVIKAKYGKDATNVGDEGGFAPNILENNEALELLKTAIQAAGYPDKVVIGMDVAASEFHRNGKYDLDFKSPDDPARHITGQKLGELYKSFIKNYPVVSIEDPFDQDDWATWTSFLSGVDIQIVGDDLTVTNPKRIAQAVEKKACNCLLLKVNQIGSVTESIQACKLAQSNGWGVMVSHRSGETEDTFIADLVVGLCTGQIKTGAPCRSERLAKYNQLMRIEEALGDKAVFAGRKFRNPKAK
B2: G-3-P-Dehydrogenase from bacillus subtilis: glyceraldehyde-3-phosphate dehydrogenase (G3PD) enzyme from bacillus subtilis (protein)
chain: AVKVGINGFGRIGRNVFRAALNNPEVEVVAVNDLTDANMLAHLLQYDSVHGKLDAEVSVDGNNLVVNGKTIEVSAERDPAKLSWGKQGVEIVVESTGFFTKRADAAKHLEAGAKKVIISAPANEEDITIVMGVNEDKYDAANHDVISNASCTTNCLAPFAKVLNDKFGIKRGMMTTVHSYTNDQQILDLPHKDYRRARAAAENIIPTSTGAAKAVSLVLPELKGKLNGGAMRVPTPNVSLVDLVAELNQEVTAEEVNAALKEAAEGDLKGILGYSEEPLVSGDYNGNKNSSTIDALSTMVMEGSMVKVISWYDNESGYSNRVVDLAAYIAKKGL

Experiments:
[1] = system: SDAs (schizophrenic derived antibodies); assay: Reactivity of proteins to SDAs (platelet autoantibodies from schizophrenic patients), blot with anti-human Fc-HRP; type: binding; settings: number of SDA samples that reacted positively with the enzyme, of 8 patients
Procedure: (§1) 1. Platelets and Anti-Platelet Autoantibodies Venous blood (20 ml) was drawn with heparin as anticoagulant from patients and control subjects. Platelet rich plasma (PRP) was obtained by centrifugation (100 g for 20 mins) at room temperature. Plasma free platelets were obtained by washing them three times with phosphate buffered saline (PBS) supplemented with 10 ml mM EDTA as anticoagulant (4000 g; 15 mins; 4° C.). For the isolation of anti-platelet antibodies, the platelets were incubated with 0.1 M glycine/10 mM EDTA, pH 2.8, for 10 min. at room temperature and then centrifuged (4000 g; 15 min; 4° C.). The supernatant containing the anti-platelet antibodies, was neutralized with saturated Na2PO4 solution and stored at −20 until use. 2. Preparative Isoelectric Focusing
(§2) The fractions were analyzed for immuno-reactivity by polyacrylamide (10%) gel electrophoresis, blotting the proteins onto PVDF membranes and probing the membrane with 1 ml auto-antibodies in 50 ml incubation buffer. Anti-human Fc conjugated to horseradish peroxidase (goat) from SIGMA (1:500 dilution) and Fast-DAB™ (SIGMA) or 4-Chloro-naphthol (SIGMA) were used as color reagent in order to detect bound human anti-platelet antibodies.
(§3) Every fifth fraction (0.1 ml) was dot blotted onto PVDF membranes using the DotBlot device (96 wells) from BioRad. Immuno-reactive fractions were then detected as described above (1.3) […]

[2] = system: NSDAs (non-schizophrenic derived antibodies); assay: Reactivity of proteins to NSDAs (platelet autoantibodies from control non-schizophrenic individuals), blot with anti-human Fc-HRP; type: binding; settings: number of NSDA samples that reacted positively with the enzyme, of 8 controls
Procedure: as §1, §2, §3

Molecule | Patients (n = 8) Positive [1] | Controls (n = 8) Positive [2]
B1 | 7/8 | 1/8
B2 | 1/8 | 2/8
